# Where “and” joins values, the source holds several entries; their conditions need not be identical. Equal entries are not always repeated.
# T1: 33-mer peptide fragment of α-gliadin, LQLQPFPQPQLPYPQPQLPYPQPQLPYPQPQPF (SEQ ID NO:1)
# T1 chain: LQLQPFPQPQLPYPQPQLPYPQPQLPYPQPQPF
# B1: Carboxypeptidase Y derived from Saccharomyces cerevisiae (protein)
# chain: KIKDPKILGIDPNVTQYTGYLDVEDEDKHFFFWTFESRNDPAKDPVILWLNGGPGCSSLTGLFFELGPSSIGPDLKPIGNPYSWNSNATVIFLDQPVNVGFSYSGSSGVSNTVAAGKDVYNFLELFFDQFPEYVNKGQDFHIAGESYAGHYIPVFASEILSHKDRNFNLTSVLIGNGLTDPLTQYNYYEPMACGEGGEPSVLPSEECSAMEDSLERCLGLIESCYDSQSVWSCVPATIYCNNAQLAPYQRTGRNVYDIRKDCEGGNLCYPTLQDIDDYLNQDYVKEAVGAEVDHYESCNFDINRNFLFAGDWMKPYHTAVTDLLNQDLPILVYAGDKDFICNWLGNKAWTDVLPWKYDEEFASQKVRNWTASITDEVAGEVKSYKHFTYLRVFNGGHMVPFDVPENALSMVNEWIHGGFSL
# B2: proteinase K (protein)
# chain: AAQTNAPWGLARISSTSPGTSTYYYDESAGQGSCVYVIDTGIEASHPEFEGRAQMVKTYYYSSRDGNGHGTHCAGTVGSRTYGVAKKTQLFGVKVLDDNGSGQYSTIIAGMDFVASDKNNRNCPKGVVASLSLGGGYSSSVNSAAARLQSSGVMVAVAAGNNNADARNYSPASEPSVCTVGASDRYDRRSSFSNYGSVLDIFGPGTSILSTWIGGSTRSISGTSMATPHVAGLAAYLMTLGKTTAASACRYIADTANKGDLSNIPFGTVNLLAYNNYQA
# B3: papain (protein)
# chain: IPEYVDWRQKGAVTPVKNQGSCGSCWAFSAVVTIEGIIKIRTGNLNEYSEQELLDCDRRSYGCNGGYPWSALQLVAQYGIHYRNTYPYEGVQRYCRSREKGPYAAKTDGVRQVQPYNEGALLYSIANQPVSVVLEAAGKDFQLYRGGIFVGPCGNKVDHAVAAVGYGPNYILIKNSWGTGWGENGYIRIKRGTGNSYGVCGLYTSSFYPVKN
# B4: Oryzin (protein)
# chain: GLTTQKSAPWGLGSISHKGQQSTDYIYDTSAGEGTYAYVVDSGVNVDHEEFEGRASKAYNAAGGQHVDSIGHGTHVSGTIAGKTYGIAKKASILSVKVFQGESSSTSVILDGFNWAANDIVSKKRTSKAAINMSLGGGYSKAFNDAVENAFEQGVLSVVAAGNENSDAGQTSPASAPDAITVAAIQKSNNRASFSNFGKVVDVFAPGQDILSAWIGSSSATNTISGTSMATPHIVGLSLYLAALENLDGPAAVTKRIKELATKDVVKDVKGSPNLLAYNGNA
# B5: Neutral protease II (protein)
# chain: TEVTDCKGDAESSLTTALSNAAKLANQAAEAAESGDESKFEEYFKTTDQQTRTTVAERLRAVAKEAGSTSGGSTTYHCNDPYGYCEPNVLAYTLPSKNEIANCDIYYSELPPLAQKCHAQDQATTTLHEFTHAPGVYQPGTEDLGYGYDAATQLSAQDALNNADSYALYANAIELKC
# Target: T1, 33-mer peptide fragment of α-gliadin, …
protein,measurement,value
B1,"digestion of the 33-mer peptide (HPLC-MS), in vitro gastrointestinal model with pepsin, trypsin and chymotrypsin present","GDEP-M, CPY, and the combination of GDEP-M and CPY efficiently digested the 33-mer peptide in the artificial gastrointestinal condition"
same,"hydrolysis of the 33-mer peptide (HPLC-MS and ELISA), pH 5.0","CPY, MX-PEP, and AN-PEP hydrolyze the 33-mer peptide. AN-PEP appears to have the strongest activity against the 33-mer peptide, followed by CPY and then MX-PEP"
same,"hydrolysis of the 33-mer peptide (HPLC-MS), 4 hours, SIF pH 6.8",CPY efficiently hydrolyzed the 33-mer peptide and residual peptides were approximately 20 amino acids in length
same,"hydrolysis of the 33-mer peptide (HPLC-MS), 4 hours, buffer pH 4.0 to 7.0",CPY completely hydrolyzed the 33-mer peptide at acidic pH
same,"percent of the 33-mer peptide digested (ELISA), in vitro gastrointestinal model with pepsin, trypsin and chymotrypsin present",CPY alone digested about 95% of the 33-mer peptide
B2,"hydrolysis of the 33-mer peptide (HPLC-MS), 15 hours, SIF pH 6.8","at intestinal conditions (pH≈6.8), proteinase K did not hydrolyze most of the 33-mer peptide"
B3,"hydrolysis of the 33-mer peptide (HPLC-MS), 1 hour, pH 4.5",Papain completely hydrolyzed the 33-mer peptide at a pH of about 4.5
B4,"degradation of the 33-mer peptide (ELISA of intact 33-mer), 0.1 mg/ml enzyme, SIF pH 6.8",Oryzin alone did not degrade the 33-mer peptide
same,"degradation of the 33-mer peptide (ELISA), 60 min, SIF pH 6.8, lowest enzyme concentrations","Oryzin, at the lowest concentrations, did not degrade the 33-mer peptide"
same,"percent of the 33-mer peptide degraded (ELISA), 60 min, SIF pH 6.8, 0.4 mg/ml and 0.8 mg/ml enzyme","at higher concentrations (0.4 mg/ml and 0.8 mg/ml), Oryzin degraded about 10% to about 20% of the 33-mer peptide"
B5,"degradation of the 33-mer peptide (ELISA of intact 33-mer), 0.1 mg/ml enzyme, SIF pH 6.8",NP I and NP II each exhibited a limited ability to degrade the 33-mer peptide
same,"percent of the 33-mer peptide degraded (ELISA), 60 min, SIF pH 6.8",NP II alone degraded about 20% to about 30% of the 33-mer peptide

# — patent US9011842
